Source: patent publication CN115677858A (HEFEI HANKEMAB BIOTECHNOLOGY CO LTD; ANHUI ANKE …, dated 2023)
Each block holds one binder with its values, some of them ahead of it.

Key:
[1] = target: T1, 人PD-L1全长 (SEQ ID No.22)，表达于CHO-K1细胞 (human, UniProt Q9NZQ7 19-290); assay: flow cytometry (FACS) on CHO-K1/hPD-L1 cells, goat anti-human FITC
T1 construct: The full-length entry was transfected; also called CHO-K1/hPD-L1; 细胞表面人PD-L1

[2] = target: T2, 人PD-L1胞外段 (SEQ ID No.22 第19-238位) (human, UniProt Q9NZQ7 19-238); assay: ELISA, human PD-L1 extracellular domain coated, goat anti-human HRP
T2 construct: also called 人PD-L1抗原

[3] = target: T3, 人CD137全长 (SEQ ID No.19)，表达于细胞 (human, UniProt Q07011 24-255); assay: flow cytometry (FACS) on CHO-K1/hCD137 cells, goat anti-human FITC; antibody at 250 nM
T3 construct: The full-length entry was transfected into CHO-K1 cells for FACS and into HEK293 cells for the reporter assay; also called CHO-K1/hCD137; 细胞表面人CD137

[4] = target: T3, 人CD137全长 (SEQ ID No.19)，表达于细胞; assay: flow cytometry (FACS) on CHO-K1/hCD137 cells, goat anti-human FITC; 4-parameter logistic fit
[5] = target: T3, 人CD137全长 (SEQ ID No.19)，表达于细胞; assay: flow cytometry (FACS) on CHO-K1/hCD137 cells, goat anti-human FITC; antibody at 0.342935528 nM
[6] = target: T3, 人CD137全长 (SEQ ID No.19)，表达于细胞; assay: flow cytometry (FACS) on CHO-K1/hCD137 cells, goat anti-human FITC; antibody at 1.028806584 nM
[7] = target: T3, 人CD137全长 (SEQ ID No.19)，表达于细胞; assay: flow cytometry (FACS) on CHO-K1/hCD137 cells, goat anti-human FITC; antibody at 27.77777778 nM
[8] = target: T3, 人CD137全长 (SEQ ID No.19)，表达于细胞; assay: flow cytometry (FACS) on CHO-K1/hCD137 cells, goat anti-human FITC; antibody at 3.086419753 nM
[9] = target: T3, 人CD137全长 (SEQ ID No.19)，表达于细胞; assay: flow cytometry (FACS) on CHO-K1/hCD137 cells, goat anti-human FITC; antibody at 83.33333333 nM
[10] = target: T3, 人CD137全长 (SEQ ID No.19)，表达于细胞; assay: flow cytometry (FACS) on CHO-K1/hCD137 cells, goat anti-human FITC; antibody at 9.259259259 nM
[11] = target: T4, 人PD-L1胞外段 (SEQ ID No.22 第19-238位)，带His标签 (human, UniProt Q9NZQ7 19-238); assay: bridging ELISA: human PD-L1-His coated, bispecific antibody, then human CD137-mouse Fc, goat anti-mouse HRP
T4 construct: It may be the same preparation as m7; not shown: His tag

猴CD137胞外段 (SEQ ID No.20) = target: T5, 猴CD137胞外段 (SEQ ID No.20) (monkey, UniProt Q07011 24-186 (human entry)); assay: ELISA, monkey CD137 extracellular domain coated, goat anti-human HRP
T5 construct: Expressed in HEK293; no tag is stated; also called 猴CD137抗原
T5 chain: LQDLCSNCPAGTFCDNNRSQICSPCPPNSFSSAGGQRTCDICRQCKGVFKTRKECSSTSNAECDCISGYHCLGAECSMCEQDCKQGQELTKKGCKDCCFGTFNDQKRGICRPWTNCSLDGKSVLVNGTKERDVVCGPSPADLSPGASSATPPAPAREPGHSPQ

猴PD-L1胞外段 (SEQ ID No.23) = target: T6, 猴PD-L1胞外段 (SEQ ID No.23) (monkey, UniProt Q9NZQ7 19-238 (human entry)); assay: ELISA, monkey PD-L1 extracellular domain coated, goat anti-human HRP
T6 construct: Expressed in HEK293; no tag is stated; also called 猴PD-L1抗原
T6 sequence (Q9NZQ7 other isoform, or with tags, fused parts or gaps): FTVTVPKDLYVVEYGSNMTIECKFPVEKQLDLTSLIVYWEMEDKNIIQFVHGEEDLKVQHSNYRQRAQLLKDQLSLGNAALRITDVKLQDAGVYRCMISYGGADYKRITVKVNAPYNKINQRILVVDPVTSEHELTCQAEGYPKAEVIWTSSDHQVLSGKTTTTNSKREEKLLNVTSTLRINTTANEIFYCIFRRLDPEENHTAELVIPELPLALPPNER

T3 sequence (Q07011 24-255 limits assumed): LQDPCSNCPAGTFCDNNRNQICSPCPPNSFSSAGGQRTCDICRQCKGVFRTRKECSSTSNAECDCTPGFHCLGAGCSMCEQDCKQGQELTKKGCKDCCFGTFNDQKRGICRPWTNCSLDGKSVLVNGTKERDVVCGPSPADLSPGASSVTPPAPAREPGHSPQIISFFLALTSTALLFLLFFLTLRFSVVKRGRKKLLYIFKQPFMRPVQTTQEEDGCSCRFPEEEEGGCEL
T1 sequence (Q9NZQ7 19-290 limits assumed): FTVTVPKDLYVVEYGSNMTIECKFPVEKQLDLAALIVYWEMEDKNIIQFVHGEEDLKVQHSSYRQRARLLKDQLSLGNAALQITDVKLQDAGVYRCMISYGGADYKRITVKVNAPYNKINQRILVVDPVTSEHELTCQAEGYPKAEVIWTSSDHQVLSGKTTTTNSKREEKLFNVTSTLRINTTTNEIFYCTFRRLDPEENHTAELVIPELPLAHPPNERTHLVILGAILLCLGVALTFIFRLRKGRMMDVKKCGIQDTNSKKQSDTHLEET
T2 sequence (Q9NZQ7 19-238): as the sequence (Q9NZQ7 other isoform, or with tags, fused parts or gaps) above, with T33A, S34A, N62S, Q68R, R82Q, L173F, A185T, I192T, L215H counted along it
T4 sequence (Q9NZQ7 19-238): as the sequence (Q9NZQ7 other isoform, or with tags, fused parts or gaps) above, with T33A, S34A, N62S, Q68R, R82Q, L173F, A185T, I192T, L215H counted along it

- binding result [1]: binds
- binding result [2]: binds
- FACS signal (read-out name not given) [3]: 16200
- EC50 [4]: 14.4 nM
- FACS signal (read-out name not given) [5]: 2680
- FACS signal (read-out name not given) [6]: 3020
- FACS signal (read-out name not given) [7]: 12100
- FACS signal (read-out name not given) [8]: 4096
- FACS signal (read-out name not given) [9]: 16100
- FACS signal (read-out name not given) [10]: 8000
- binding result [11]: binds
B1: 抗人PD-L1/CD137双特异性抗体 结构B (1st scFv-L1-Fc-L2-2nd Fab) (bispecific antibody, human IgG4 S228P, kappa, F234A L235A)
heavy: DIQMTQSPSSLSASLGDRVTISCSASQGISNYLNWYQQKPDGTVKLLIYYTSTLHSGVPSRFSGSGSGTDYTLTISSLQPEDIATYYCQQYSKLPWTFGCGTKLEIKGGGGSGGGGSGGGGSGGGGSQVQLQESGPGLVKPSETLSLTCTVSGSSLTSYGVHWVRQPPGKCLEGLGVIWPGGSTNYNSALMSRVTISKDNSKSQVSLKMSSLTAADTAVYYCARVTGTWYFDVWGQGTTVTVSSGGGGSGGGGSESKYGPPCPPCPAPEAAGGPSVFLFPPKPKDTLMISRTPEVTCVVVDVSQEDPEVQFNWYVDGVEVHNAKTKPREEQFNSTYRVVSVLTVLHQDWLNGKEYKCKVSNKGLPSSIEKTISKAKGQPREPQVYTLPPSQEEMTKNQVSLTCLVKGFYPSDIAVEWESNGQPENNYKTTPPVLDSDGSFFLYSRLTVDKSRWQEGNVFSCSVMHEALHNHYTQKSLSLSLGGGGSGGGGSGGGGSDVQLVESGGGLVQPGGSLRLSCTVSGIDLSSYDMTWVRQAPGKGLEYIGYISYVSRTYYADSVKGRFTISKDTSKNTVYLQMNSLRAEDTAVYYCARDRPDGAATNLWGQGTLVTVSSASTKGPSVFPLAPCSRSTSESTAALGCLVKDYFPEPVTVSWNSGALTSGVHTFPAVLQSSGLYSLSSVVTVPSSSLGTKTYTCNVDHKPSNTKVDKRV
light: DIQMTQSPSTLSASVGDRVTITCQSSQNVYSNNRLSWYQQKPGKAPKLLIYWTSFLASGVPSRFSGSGSGTEFTLTISSLQPDDFATYYCAGGYSGNLYTFGQGTKLEIKRTVAAPSVFIFPPSDEQLKSGTASVVCLLNNFYPREAKVQWKVDNALQSGNSQESVTEQDSKDSTYSLSSTLTLSKADYEKHKVYACEVTHQGLSSPVTKSFNRGEC
notes: Anti-CD137 scFv at the N-terminus of human IgG4 Fc, anti-PD-L1 Fab at its C-terminus; also called B结构

- FACS signal (read-out name not given) [3]: 16600
- EC50 [4]: 12.4 nM
- FACS signal (read-out name not given) [5]: 2590
- FACS signal (read-out name not given) [6]: 2620
- FACS signal (read-out name not given) [7]: 14600
- FACS signal (read-out name not given) [8]: 2920
- FACS signal (read-out name not given) [9]: 16700
- FACS signal (read-out name not given) [10]: 7390
B2: 抗人PD-L1/CD137双特异性抗体 结构D3 (D1的突变分子) (bispecific antibody, human IgG4 S228P, kappa, F234A L235A)
heavy: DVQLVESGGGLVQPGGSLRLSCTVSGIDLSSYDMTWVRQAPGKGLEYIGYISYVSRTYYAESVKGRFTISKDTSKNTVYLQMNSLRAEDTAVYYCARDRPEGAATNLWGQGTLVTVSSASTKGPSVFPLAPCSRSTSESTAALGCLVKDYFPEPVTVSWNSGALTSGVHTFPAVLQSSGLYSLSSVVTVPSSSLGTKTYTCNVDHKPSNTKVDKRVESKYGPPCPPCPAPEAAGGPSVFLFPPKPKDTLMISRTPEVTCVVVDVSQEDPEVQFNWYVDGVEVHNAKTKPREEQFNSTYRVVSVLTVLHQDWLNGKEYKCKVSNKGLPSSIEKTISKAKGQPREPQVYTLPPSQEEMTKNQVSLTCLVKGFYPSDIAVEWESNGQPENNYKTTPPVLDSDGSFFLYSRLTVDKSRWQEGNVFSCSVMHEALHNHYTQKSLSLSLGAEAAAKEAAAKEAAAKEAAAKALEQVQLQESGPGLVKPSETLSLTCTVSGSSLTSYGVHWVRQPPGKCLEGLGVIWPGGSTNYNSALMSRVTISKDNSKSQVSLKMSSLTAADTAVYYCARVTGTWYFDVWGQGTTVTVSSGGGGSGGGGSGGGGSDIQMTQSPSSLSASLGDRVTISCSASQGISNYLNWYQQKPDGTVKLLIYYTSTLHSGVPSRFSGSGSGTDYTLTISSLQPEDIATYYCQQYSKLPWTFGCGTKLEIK
light: B1 light
notes: Mutant of D1; also called D3结构

- binding result [1]: binds
- binding result [2]: binds
- binding result (猴CD137胞外段 (SEQ ID No.20)): binds
- binding result (猴PD-L1胞外段 (SEQ ID No.23)): binds
- FACS signal (read-out name not given) [3]: 15300
- EC50 [4]: 16.4 nM
- FACS signal (read-out name not given) [5]: 2620
- FACS signal (read-out name not given) [6]: 2770
- FACS signal (read-out name not given) [7]: 11100
- FACS signal (read-out name not given) [8]: 3930
- FACS signal (read-out name not given) [9]: 15400
- FACS signal (read-out name not given) [10]: 7030
- binding result [11]: binds
B3: 抗人PD-L1/CD137双特异性抗体 结构D6 (D2的突变分子) (bispecific antibody, human IgG4 S228P, kappa, F234A L235A)
heavy: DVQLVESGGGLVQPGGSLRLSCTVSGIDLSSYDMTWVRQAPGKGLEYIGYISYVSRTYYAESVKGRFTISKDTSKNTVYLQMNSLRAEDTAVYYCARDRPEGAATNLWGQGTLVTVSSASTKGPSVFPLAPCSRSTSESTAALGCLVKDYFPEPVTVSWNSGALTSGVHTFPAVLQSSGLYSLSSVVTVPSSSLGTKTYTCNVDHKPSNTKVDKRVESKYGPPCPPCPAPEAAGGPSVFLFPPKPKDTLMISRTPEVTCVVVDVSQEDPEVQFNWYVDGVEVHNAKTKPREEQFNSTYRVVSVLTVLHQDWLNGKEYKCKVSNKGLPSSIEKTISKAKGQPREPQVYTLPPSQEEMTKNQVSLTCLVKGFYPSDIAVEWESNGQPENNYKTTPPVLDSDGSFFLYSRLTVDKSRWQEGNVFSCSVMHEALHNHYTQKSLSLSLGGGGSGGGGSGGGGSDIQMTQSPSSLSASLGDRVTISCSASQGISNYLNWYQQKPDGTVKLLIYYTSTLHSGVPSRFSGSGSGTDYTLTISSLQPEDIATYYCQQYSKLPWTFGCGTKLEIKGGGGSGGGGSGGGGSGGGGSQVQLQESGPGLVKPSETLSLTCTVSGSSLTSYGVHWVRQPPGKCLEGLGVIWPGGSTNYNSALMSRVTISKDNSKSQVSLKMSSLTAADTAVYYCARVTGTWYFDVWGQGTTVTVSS
light: B1 light
notes: Mutant of D2; also called D6结构
